B1: hpE1-amh (hydrophilic E1 monobody with C-terminal AviTag-Myc-6xHis tag) (designed binder)
chain: SSDSPRNLEVTNATPNSLTISWYYPFCAFYYRITYGETGGNSPSQEFTVPRPSDTATISGLKPGQDYTITVYAVTCLGSYSRPISINYRTEIDKPSQ
notes: Expressed in E. coli BL21(DE3) from pETamh and purified by IMAC and size exclusion; The gene was cloned at an NdeI site that includes the ATG start codon; also called hpE1 monobody; hydrophilic monobody(hpE1); not shown: amh tag (AviTag-Myc-6xHis) of the pETamh vector linked to the C-terminus
B2: E1-amh (E1 monobody with C-terminal AviTag-Myc-6xHis tag) (designed binder)
chain: VSDVPRDLEVVAATPTSLLISWYYPFCAFYYRITYGETGGNSPVQEFTVPRPSDTATISGLKPGVDYTITVYAVTCLGSYSRPISINYRT
notes: Expressed in E. coli BL21(DE3) from pETamh and purified by IMAC and size exclusion; also called non-hydrophilic monobody(E1); E1 monomer; not shown: amh tag (AviTag-Myc-6xHis) of the pETamh vector linked to the C-terminus

Molecular target: T1, recombinant EphA2 protein (R&D systems) (human, UniProt P29317 25-534, limits assumed)
T1 construct: Bought protein coated on the ELISA plate at 1 ug/mL; also called hEphA2; human antigen EphA2
Assay: ELISA: recombinant EphA2 coated at 1 ug/mL, monobody-amh diluted twofold from 500 nM, detected with HRP anti-c-Myc antibody, OD 450 nm

T1 sequence (P29317 25-534 limits assumed): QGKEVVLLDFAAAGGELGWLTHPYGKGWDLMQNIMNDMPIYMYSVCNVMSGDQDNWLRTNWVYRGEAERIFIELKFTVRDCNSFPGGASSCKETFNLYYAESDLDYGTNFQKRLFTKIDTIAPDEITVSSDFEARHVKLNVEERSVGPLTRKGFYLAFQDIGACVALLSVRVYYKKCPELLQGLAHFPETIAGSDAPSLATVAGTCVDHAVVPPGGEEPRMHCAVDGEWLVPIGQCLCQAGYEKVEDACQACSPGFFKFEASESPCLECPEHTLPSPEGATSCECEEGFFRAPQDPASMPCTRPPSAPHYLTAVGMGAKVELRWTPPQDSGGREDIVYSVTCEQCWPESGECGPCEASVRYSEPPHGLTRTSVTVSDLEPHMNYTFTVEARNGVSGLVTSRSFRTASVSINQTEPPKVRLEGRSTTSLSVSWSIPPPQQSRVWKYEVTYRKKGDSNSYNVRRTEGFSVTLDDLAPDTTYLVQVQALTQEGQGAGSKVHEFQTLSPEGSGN

Binder	binding result
B1	binds
B2	binds
